Data from paper PMC12718381.

target: HA-STIM1-L258C (UniProt Q13586); experiment: disulfide crosslinking, Western blot; conditions: diamide-treated STIM1/2 DKO HEK293 cells coexpressing HA-STIM1-L258C and a single mCh-STIM1 mutant; read off a plot

| Substance | other: Crosslinking (%) |
| --- | --- |
| mCh-STIM1 421C | 1.8% |
| mCh-STIM1 418C | 3.8% |
| mCh-STIM1 417C | 2.9% |

The next lines start with the values.

| other: Crosslinking (%) | Substance |
| --- | --- |
| 1.2% | mCh-STIM1 422C |
| 7% | mCh-STIM1 424C |
